Legend:
[1] = target: T1, T129C Xyn-XMod-Doc protein (R. flavefaciens XMod-Doc from the CttA scaffoldin fused to the XynT6 xylanase … (Ruminococcus flavefaciens strain FD1, UniProt A0AEF5 565-803, engineered cysteine (T129C in the xylanase) coupled to a 5 kDa NHS-PEG-Mal linker on the cover glass or cantilever)); test: AFM single-molecule force spectroscopy; as a1, but final Doc:Coh rupture immediately following XMod unfolding (35–40% of traces); Bell-Evans fit; conditions: both partners purified
T1 construct: X-module and dockerin (XMod-Doc) of the CttA scaffoldin of Ruminococcus flavefaciens strain FD1; The Xyn domain is a marker (fingerprint) and immobilisation domain and is written as a carrier under tags; Addgene 60865 holds the plasmid; also called XynT6-XDoc T129C; Xylanase-Xmodule-Dockerin; source: E. coli BL21, purified (Ni-NTA); not shown: XynT6 xylanase from Geobacillus stearothermophilus …
T1 sequence: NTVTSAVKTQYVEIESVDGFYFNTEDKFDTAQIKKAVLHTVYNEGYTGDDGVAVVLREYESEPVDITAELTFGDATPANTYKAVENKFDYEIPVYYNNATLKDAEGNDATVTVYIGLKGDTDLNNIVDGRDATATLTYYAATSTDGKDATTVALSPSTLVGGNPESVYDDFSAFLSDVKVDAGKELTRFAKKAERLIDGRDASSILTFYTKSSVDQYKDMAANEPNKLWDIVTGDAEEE

[2] = target: T1, T129C Xyn-XMod-Doc protein (R. …); test: AFM single-molecule force spectroscopy; both partners covalently immobilised through PEG linkers; configuration I: Coh-CBM on the cantilever, Xyn-XMod-Doc on the cover glass (configuration II the reverse); Ca-TBS (25 mM TRIS, 72 mM NaCl, 1 mM CaCl2, pH 7.2); pulling speeds 0.2 to 6.4 um/s; final complex rupture with intact XMod; Bell-Evans fit; conditions: both partners purified

koff of the rupture following XMod unfolding [1]: 0.00047 s⁻¹
rupture force following XMod unfolding [1]: ~300 pN
koff [2]: 7.3e-07 s⁻¹
B1: Coh-CBM C2A, C63S fusion protein (R. flavefaciens CohE from ScaE fused to cellulose-binding module 3a (CBM3a) from C. thermocellum), with ybbR tag (domain or fragment, Ruminococcus flavefaciens strain FD1)
chain: ALTDRGMTYDLDPKDGSSAATKPVLEVTKKVFDTAADAAGQTVTVEFKVSGAEGKYATTGYHIYWDERLEVVATKTGAYAKKGAALEDSSLAKAENNGNGVFVASGADDDFGADGVMWTVELKVPADAKAGDVYPIDVAYQWDPSKGDLFTDNKDSAQGKLMQAYFFTQGIKSSSNPSTDEYLVKANATYADGYIAIKAGEP
modifications: ybbR tag covalently linked to Coenzyme A on PEG by Sfp phosphopantetheinyl transferase
notes: cohesin CohE of the ScaE scaffoldin of Ruminococcus flavefaciens strain FD1; The CBM is a marker (fingerprint) and immobilisation domain and is written as a carrier under tags; C2A reverts the earlier A2C in the CBM; also called CohE-CBM C2A C63S; Coh-CBM-ybbR; source: E. coli BL21(DE3) RIPL, purified (Ni-NTA); not shown: CBM3a from C. thermocellum with C2A and C63S, C-terminal, kept

From publication PMC4266597, “Ultrastable cellulosome-adhesion complex tightens under load” (Nature Communications, 2014)
